The values below come from paper PMC8080463.

Data set [1] deals with T1, CRP (UniProt P02741 19-224).
T1 sequence: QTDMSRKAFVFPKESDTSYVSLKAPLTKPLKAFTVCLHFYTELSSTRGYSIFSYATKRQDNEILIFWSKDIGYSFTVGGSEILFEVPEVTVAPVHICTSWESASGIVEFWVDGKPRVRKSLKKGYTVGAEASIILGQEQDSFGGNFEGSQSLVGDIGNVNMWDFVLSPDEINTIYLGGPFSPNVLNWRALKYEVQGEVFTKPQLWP
Briefly: EMSA. In general terms: In EMSA bound probe runs differently from free probe, usually more slowly.

Data set [2] concerns the target T1, CRP. Briefly: SPR. On the technique in general: Surface plasmon resonance follows binding to a sensor surface in real time, without labels.
In a further data set the target is T2, PLGF (Homo sapiens, UniProt P49763 19-141+214-221, internal_change).
T2 sequence: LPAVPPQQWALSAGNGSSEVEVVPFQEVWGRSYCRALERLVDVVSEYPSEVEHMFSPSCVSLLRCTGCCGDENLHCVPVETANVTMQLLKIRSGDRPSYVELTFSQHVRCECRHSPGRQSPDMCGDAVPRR
The data set is described as follows: SPR.

For the next data set, the target named is Annexin 2 (UniProt P07355 2-339). Briefly: EMSA.
Sequence of Annexin 2 (P07355 2-339): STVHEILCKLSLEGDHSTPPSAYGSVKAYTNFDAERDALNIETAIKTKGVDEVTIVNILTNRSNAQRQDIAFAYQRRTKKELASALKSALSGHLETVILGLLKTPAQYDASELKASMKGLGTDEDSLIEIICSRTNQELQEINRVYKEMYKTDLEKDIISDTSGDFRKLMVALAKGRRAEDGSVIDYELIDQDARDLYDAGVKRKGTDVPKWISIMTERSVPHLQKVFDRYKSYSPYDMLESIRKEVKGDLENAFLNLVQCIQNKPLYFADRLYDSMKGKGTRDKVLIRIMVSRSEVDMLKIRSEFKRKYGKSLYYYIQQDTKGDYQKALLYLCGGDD
The target of the next data set is TNF-alpha (UniProt P01375 77-233). Briefly: EMSA.
Sequence of TNF-alpha (P01375 77-233): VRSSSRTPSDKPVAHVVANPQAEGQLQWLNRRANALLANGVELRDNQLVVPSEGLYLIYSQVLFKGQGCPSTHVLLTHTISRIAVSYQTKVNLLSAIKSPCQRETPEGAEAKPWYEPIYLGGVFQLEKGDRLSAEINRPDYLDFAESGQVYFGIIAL
For another data set, the target named is HGF (UniProt P14210;P14210 32-494;495-728). The data set is described as follows: SPR.
Sequence of HGF (P14210 32-494, chain 1 of 2): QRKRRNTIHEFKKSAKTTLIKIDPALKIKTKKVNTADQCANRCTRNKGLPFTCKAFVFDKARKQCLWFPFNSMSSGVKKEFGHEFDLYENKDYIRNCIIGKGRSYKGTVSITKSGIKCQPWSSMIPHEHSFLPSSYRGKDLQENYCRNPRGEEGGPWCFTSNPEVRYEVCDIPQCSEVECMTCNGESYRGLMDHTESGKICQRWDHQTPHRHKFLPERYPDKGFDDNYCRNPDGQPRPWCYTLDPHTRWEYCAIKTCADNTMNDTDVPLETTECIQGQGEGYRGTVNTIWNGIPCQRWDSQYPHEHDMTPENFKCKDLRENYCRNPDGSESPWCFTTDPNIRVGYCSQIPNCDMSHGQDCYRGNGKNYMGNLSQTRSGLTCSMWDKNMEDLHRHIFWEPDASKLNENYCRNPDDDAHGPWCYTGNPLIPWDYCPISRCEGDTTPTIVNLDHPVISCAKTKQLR
Sequence of HGF (P14210 495-728, chain 2 of 2): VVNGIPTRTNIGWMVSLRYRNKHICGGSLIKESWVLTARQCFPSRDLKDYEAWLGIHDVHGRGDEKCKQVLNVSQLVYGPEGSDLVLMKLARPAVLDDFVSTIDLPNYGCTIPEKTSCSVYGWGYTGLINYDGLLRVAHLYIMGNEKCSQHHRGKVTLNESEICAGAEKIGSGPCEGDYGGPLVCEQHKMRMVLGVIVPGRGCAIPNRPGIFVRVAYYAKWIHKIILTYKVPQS
The target of the next data set is ApoE4 (UniProt P02649 19-317, C130R). The data set is described as follows: SPR.
Sequence of ApoE4 (P02649 19-317 C130R): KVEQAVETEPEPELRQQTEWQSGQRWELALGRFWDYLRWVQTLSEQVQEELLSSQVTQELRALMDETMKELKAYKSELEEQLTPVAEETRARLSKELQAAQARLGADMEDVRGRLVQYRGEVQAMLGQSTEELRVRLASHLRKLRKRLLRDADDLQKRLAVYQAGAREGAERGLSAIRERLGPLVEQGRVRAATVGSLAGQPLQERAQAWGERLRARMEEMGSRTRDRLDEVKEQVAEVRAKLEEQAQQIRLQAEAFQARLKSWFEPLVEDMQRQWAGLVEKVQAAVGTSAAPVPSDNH

B1: CRP-PQS2 (ssDNA)
DNA: GGGGACTGTTGTGGGGTGGGGGGAGGGGGG
On to B1, for which the binding result with CRP [1] is on record as “binds”.

B2: CRP-PQS1 (ssDNA)
DNA: GGGATCGTGGAGTTCTGGGTAGATGGGAAGCCCAGGG
For B2, the binding result with CRP [2] is “no binding”.

B3: PLGF-PQS4 (structured_DNA)
DNA: GGGCGGGTGTCCCGGGTGTCGGG
Turning to B3, in the data set with PLGF, the binding result is “no binding”.

B4: Annexin2-PQS7 (structured_DNA)
DNA: GGGCCGGGAGGGTGCAGGG
With B4, the binding result with Annexin 2 was “binds”.

B5: TNFa-PQS3 (structured_DNA)
DNA: GGGTCCGAACAGGGACGATGGGGGTGGG
B5: the binding result with TNF-alpha was “no binding”.

B6: HGF-PQS9 (structured_DNA)
DNA: GGAAAGGAGGGGGCTGG
In the case of B6, the binding result with HGF was “no binding”.

B7: TNFa-PQS4 (structured_DNA)
DNA: GGGAGAGAGGGAGGGAGGTCGTTTGGG
Take B7: the binding result with TNF-alpha is reported as “no binding”.

B8: Annexin2-PQS2 (structured_DNA)
DNA: GGCGCCTGGCGCGTCTGGAATGCGG
Regarding B8, the binding result with Annexin 2 is recorded as “binds”.

B9: TNFa-PQS1 (structured_DNA)
DNA: GGGTTTGGGTTTGGGGGTAGGG
Consider B9, for which the binding result with TNF-alpha is recorded as “no binding”.

B10: HGF-PQS4 (ssDNA)
DNA: GGGCTGGCAGGAGTTTGG
For the molecule B10, the binding result in the data set with HGF is “no binding”.

B11: HGF-PQS5 (ssDNA)
DNA: GGACGGGCTGGCGG
Take B11: in the data set with HGF, the binding result was “no binding”.

B12: HGF-PQS2 (ssDNA)
DNA: GGAATAGGGAAGGTTAGCAGG
On to B12, for which the binding result with HGF is recorded as “no binding”.

B13: PLGF-PQS1 (structured_DNA)
DNA: GGGCGCCGAGGGGCAGGCGGGTCCCGGGG
On to B13, for which the binding result in the data set with PLGF is listed as “no binding”.

B14: HGF-PQS6 (structured_DNA)
DNA: GGAAGGGAGGAGCAAGG
For B14, the binding result with HGF is recorded as “no binding”.

B15: Annexin2-PQS5 (structured_DNA)
DNA: GGGCAGGGCCAGGGGCGCTGGG
Consider B15, for which the binding result in the data set with Annexin 2 was “binds”.

B16: Annexin2-PQS6 (structured_DNA)
DNA: GGGGAGGCGGGGCGGGGCGGGG
With B16, the binding result in the data set with Annexin 2 was “binds”.

B17: PLGF-PQS3 (structured_DNA)
DNA: GGGCCTCGCGGGCCAGTCGGGCGTCGCGGG
Turning to B17, the binding result in the data set with PLGF is “no binding”.

B18: ApoE4-PQS8 (structured_DNA)
DNA: GGGCTGGGATGGGGCGGG
As for B18, in the data set with ApoE4, the binding result was “no binding”.

B19: ApoE4-PQS1 (structured_DNA)
DNA: GGTGGCGGAGG
Take B19: the dissociation constant (Kd) (in general, the constant that tells how readily two partners part at equilibrium) with ApoE4 stood at 60 nM.

B20: Annexin2-PQS1 (structured_DNA)
DNA: GGACCTGCGGCTCCCTGGGCGG
On to B20, for which, in the data set with Annexin 2, the binding result was “binds”.

B21: PLGF-PQS2 (structured_DNA)
DNA: GGGAGGGAGGGAGGG
For B21, the binding result in the data set with PLGF is recorded as “no binding”.

B22: HGF-PQS3 (structured_DNA)
DNA: GGGGATGGCGATGGGGAGCAGG
Regarding B22, in the data set with HGF, the binding result is reported as “no binding”.

B23: TNFa-PQS2 (structured_DNA)
DNA: GGGCATGGGGACGGGGTTCAGCCTCCAGGG
For B23, in the data set with TNF-alpha, the binding result is on record as “no binding”.
